Experimental data reported in the supplement of paper PMC5998384.

Columns and labels:
[1] = system: HeLa Kyoto; assay: thermal stability score vs G1/S (z-score of summed log2 fold changes over temperatures); higher = more thermally stable than in G1/S
[2] = system: HeLa Kyoto; assay: solubility change mitosis vs G1/S (difference of NP-40 vs SDS log2 ratios) (log2 ratio difference); higher = more soluble in mitosis
[3] = system: HeLa Kyoto; assay: solubility in G1/S (NP-40 vs SDS abundance) (log2 ratio); higher = more soluble; conditions: cell cycle stage: G1/S
[4] = system: HeLa Kyoto; assay: melting temperature (median over replicates), in situ; higher = more thermally stable
[5] = cell cycle stage: early G1 (4.5 h after nocodazole release)
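Throughout, for melting temperature (median over replicates), in situ: HeLa Kyoto cells synchronized by double thymidine or nocodazole block, proteins quantified by TMT10plex mass spectrometry, three independent biological replicates.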
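Throughout, for solubility change mitosis vs G1/S (difference of NP-40 vs SDS log2 ratios): synchronized HeLa Kyoto cells (double thymidine block for G1/S, nocodazole release for mitosis), protein amounts in NP-40 versus SDS lysates quantified by mass spectrometry, three biological replicates.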
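Throughout, for solubility in G1/S (NP-40 vs SDS abundance): HeLa Kyoto cells arrested at G1/S by double thymidine block, proteins quantified by TMT10plex mass spectrometry in mild NP-40 versus SDS extracts, three biological replicates.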
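Throughout, for thermal stability score vs G1/S (z-score of summed log2 fold changes over temperatures): synchronized HeLa Kyoto cells, proteins quantified by TMT10plex mass spectrometry, three biological replicates, mitosis taken 0.5 h after nocodazole release, G1/S directly after double thymidine block.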

Sequence	thermal stability score [1, 5]	thermal stability score ([1]; cell cycle stage: mitosis)	solubility change mitosis (log2) [2]	solubility in G1/S (log2) [3]	melting temperature ([4]; cell cycle stage: G1/S)	melting temperature ([4]; cell cycle stage: mitosis)
MRWGLRPRGPGAAALATARSLWGTPRLPCSPGWQGATKRLLVRSVSGASNHQPNSNSGRYRDTVLLPQTSFPMKLLGRQQPDTELEIQQKCGFSELYSWQRERKVKTEFCLHDGPPYANGDPHVGHALNKILKDIANRFHMMNGSKIHFVPGWDCHGLPIEIKVLSELGREAQNLSAMEIRKKARSFAKAAIEKQKSAFIRWGIMADWNNCYYTFDGKYEAKQLRTFYQMYDKGLVYRSYKPVFWSPSSRTALAEAELEYNPEHVSRSIYVKFPLLKPSPKLASLIDGSSPVSILVWTTQPWTIPANEAVCYMPESKYAVVKCSKSGDLYVLAADKVASVASTLETTFETISTLSGVDLENGTCSHPLIPDKASPLLPANHVTMAKGTGLVHTAPAHGMEDYGVASQHNLPMDCLVDEDGVFTDVAGPELQNKAVLEEGTDVVIKMLQTAKNLLKEEKLVHSYPYDWRTKKPVVIRASKQWFINITDIKTAAKELLKKVKFIPGSALNGMVEMMDRRPYWCISRQRVWGVPIPVFHHKTKDEYLINSQTTEHIVKLVEQHGSDIWWTLPPEQLLPKEVLSEVGGPDALEYVPGQDILDIWFDSGTSWSYVLPGPDQRADLYLEGKDQLGGWFQSSLLTSVAARKRAPYKTVIVHGFTLGEKGEKMSKSLGNVIHPDVVVNGGQDQSKEPPYGADVLRWWVADSNVFTEVAIGPSVLNAARDDISKLRNTLRFLLGNVADFNPETDSIPVNDMYVIDQYMLHLLQDLANKITELYKQYDFGKVVRLLRTFYTRELSNFYFSIIKDRLYCEKENDPKRRSCQTALVEILDVIVRSFAPILPHLAEEVFQHIPYIKEPKSVFRTGWISTSSIWKKPGLEEAVESACAMRDSFLGSIPGKNAAEYKVITVIEPGLLFEIIEMLQSEETSSTSQLNELMMASESTLLAQEPREMTADVIELKGKFLINLEGGDIREESSYKVIVMPTTKEKCPRCWKYTAESSDTLCPRCAEVVSGK [IARS2]	-0.383	-1.42	-0.0958	-0.0329	54.9 °C	54.9 °C
MSAAIAALAASYGSGSGSESDSDSESSRCPLPAADSLMHLTKSPSSKPSLAVAVDSAPEVAVKEDLETGVHLDPAVKEVQYNPTYETMFAPEFGPENPFRTQQMAAPRNMLSGYAEPAHINDFMFEQQRRTFATYGYALDPSLDNHQVSAKYIGSVEEAEKNQGLTVFETGQKKTEKRKKFKENDASNIDGFLGPWAKYVDEKDVAKPSEEEQKELDEITAKRQKKGKQEEEKPGEEKTILHVKEMYDYQGRSYLHIPQDVGVNLRSTMPPEKCYLPKKQIHVWSGHTKGVSAVRLFPLSGHLLLSCSMDCKIKLWEVYGERRCLRTFIGHSKAVRDICFNTAGTQFLSAAYDRYLKLWDTETGQCISRFTNRKVPYCVKFNPDEDKQNLFVAGMSDKKIVQWDIRSGEIVQEYDRHLGAVNTIVFVDENRRFVSTSDDKSLRVWEWDIPVDFKYIAEPSMHSMPAVTLSPNGKWLACQSMDNQILIFGAQNRFRLNKKKIFKGHMVAGYACQVDFSPDMSYVISGDGNGKLNIWDWKTTKLYSRFKAHDKVCIGAVWHPHETSKVITCGWDGLIKLWD [CDC40]	-1	-0.655	0.525	-0.918	53.1 °C	51.9 °C
MSAEVETSEGVDESEKKNSGALEKENQMRMADLSELLKEGTKEAHDRAENTQFVKDFLKGNIKKELFKLATTALYFTYSALEEEMERNKDHPAFAPLYFPMELHRKEALTKDMEYFFGENWEEQVQCPKAAQKYVERIHYIGQNEPELLVAHAYTRYMGDLSGGQVLKKVAQRALKLPSTGEGTQFYLFENVDNAQQFKQLYRARMNALDLNMKTKERIVEEANKAFEYNMQIFNELDQAGSTLARETLEDGFPVHDGKGDMRKCPFYAAEQDKGALEGSSCPFRTAMAVLRKPSLQFILAAGVALAAGLLAWYYM [HMOX2]	0.884	1.97	0.0224	0.427	49.4 °C	51 °C
MSAHNRGTELDLSWISKIQVNHPAVLRRAEQIQARRTVKKEWQAAWLLKAVTFIDLTTLSGDDTSSNIQRLCYKAKYPIREDLLKALNMHDKGITTAAVCVYPARVCDAVKALKAAGCNIPVASVAAGFPAGQTHLKTRLEEIRLAVEDGATEIDVVINRSLVLTGQWEALYDEIRQFRKACGEAHLKTILATGELGTLTNVYKASMIAMMAGSDFIKTSTGKETVNATFPVAIVMLRAIRDFFWKTGNKIGFKPAGGIRSAKDSLAWLSLVKEELGDEWLKPELFRIGASTLLSDIERQIYHHVTGRYAAYHDLPMS [DERA]	-3.39	-3.58	-0.0424	-0.131	56.1 °C	56.1 °C
MSAPFEERSGVVPCGTPWGQWYQTLEEVFIEVQVPPGTRAQDIQCGLQSRHVALSVGGREILKGKLFDSTIADEGTWTLEDRKMVRIVLTKTKRDAANCWTSLLESEYAADPWVQDQMQRKLTLERFQKENPGFDFSGAEISGNYTKGGPDFSNLEK [NUDCD2]	1.01	2.41	0.035	0.372	47.7 °C	49.5 °C
MSAPLDAALHALQEEQARLKMRLWDLQQLRKELGDSPKDKVPFSVPKIPLVFRGHTQQDPEVPKSLVSNLRIHCPLLAGSALITFDDPKVAEQVLQQKEHTINMEECRLRVQVQPLELPMVTTIQMSSQLSGRRVLVTGFPASLRLSEEELLDKLEIFFGKTRNGGGDVDVRELLPGSVMLGFARDGVAQRLCQIGQFTVPLGGQQVPLRVSPYVNGEIQKAEIRSQPVPRSVLVLNIPDILDGPELHDVLEIHFQKPTRGGGEVEALTVVPQGQQGLAVFTSESG [IFI35]	-1.43	-2.41	-0.0643	0.654	54.6 °C	55.2 °C
MSASAVYVLDLKGKVLICRNYRGDVDMSEVEHFMPILMEKEEEGMLSPILAHGGVRFMWIKHNNLYLVATSKKNACVSLVFSFLYKVVQVFSEYFKELEEESIRDNFVIIYELLDELMDFGYPQTTDSKILQEYITQEGHKLETGAPRPPATVTNAVSWRSEGIKYRKNEVFLDVIESVNLLVSANGNVLRSEIVGSIKMRVFLSGMPELRLGLNDKVLFDNTGRGKSKSVELEDVKFHQCVRLSRFENDRTISFIPPDGEFELMSYRLNTHVKPLIWIESVIEKHSHSRIEYMIKAKSQFKRRSTANNVEIHIPVPNDADSPKFKTTVGSVKWVPENSEIVWSIKSFPGGKEYLMRAHFGLPSVEAEDKEGKPPISVKFEIPYFTTSGIQVRYLKIIEKSGYQALPWVRYITQNGDYQLRTQ [AP1M1]	-0.363	-0.744	-0.209	-0.0655	50.8 °C	50.6 °C
MSASGVLSFTQQGWEQVLAKVKRAVVYLDAACAESLHWGCGSTRLLEAVGGPDCHLREFEPDAIGGGAKQPKAVFVLSCLLKGRTVEILRDIICRSHFQYCVVVTTVSHAVHLTANHVPAAAAAEMEGQQPVFEQLEEKLCEWMGNMNYTAEVFHVPLLLAPVAPHFALTPAFASLFPLLPQDVHLLNSARPDKRKLGSLGDVDSTTLTPELLLQIRCLVSGLSSLCEHLGVREECFAVGSLSQVIAADLANYAPAKNRKKTAAGRASVVFVDRTLDLTGAVGHHGDNLVEKIISALPQLPGHTNDVMVNMIALTALHTEEENYNVVAPGCLSQSSDTTAKALWEALLNTKHKEAVMEVRRHLVEAASRENLPIKMSMGRVTPGQLMSYIQLFKNNLKALMNHCGLLQLGLATAQTLKHPQTAKWDNFLAFERLLLQSIGESAMSVVLNQLLPMIKPVTQRTNEDYSPEELLILLIYIYSVTGELTVDKDLCEAEEKVKKALAQVFCEESGLSPLLQKITDWDSSINLTFHKSKIAVDELFTSLRDIAGARSLLKQFKSVYVPGNHTHQASYKPLLKQVVEEIFHPERPDSVDIEHMSSGLTDLLKTGFSMFMKVSRPHPSDYPLLILFVVGGVTVSEVKMVKDLVASLKPGTQVIVLSTRLLKPLNIPELLFATDRLHPDLGF [SCFD2]	-0.157	0.192	-0.0249	-0.12	49.8 °C	49.9 °C
MSATAAARKRGKPASGAGAGAGAGKRRRKADSAGDRGKSKGGGKMNEEISSDSESESLAPRKPEEEEEEELEETAQEKKLRLAKLYLEQLRQQEEEKAEARAFEEDQVAGRLKEDVLEQRGRLQKLVAKEIQAPASADIRVLRGHQLSITCLVVTPDDSAIFSAAKDCSIIKWSVESGRKLHVIPRAKKGAEGKPPGHSSHVLCMAISSDGKYLASGDRSKLILIWEAQSCQHLYTFTGHRDAVSGLAFRRGTHQLYSTSHDRSVKVWNVAENSYVETLFGHQDAVAALDALSRECCVTAGGRDGTVRVWKIPEESQLVFYGHQGSIDCIHLINEEHMVSGADDGSVALWGLSKKRPLALQREAHGLRGEPGLEQPFWISSVAALLNTDLVATGSHSSCVRLWQCGEGFRQLDLLCDIPLVGFINSLKFSSSGDFLVAGVGQEHRLGRWWRIKEARNSVCIIPLRRVPVPPAAGS [RRP9]	-3.65	-9.84	0.596	-1.11	59.7 °C	56.5 °C
MSCCDLAAAGQLGKASIMASDCEPALNQAEGRNPTLERYLGALREAKNDSEQFAALLLVTKAVKAGDIDAKTRRRIFDAVGFTFPNRLLTTKEAPDGCPDHVLRALGVALLACFCSDPELAAHPQVLNKIPILSTFLTARGDPDDAARRSMIDDTYQCLTAVAGTPRGPRHLIAGGTVSALCQAYLGHGYGFDQALALLVGLLAAAETQCWKEAEPDLLAVLRGLSEDFQKAEDASKFELCQLLPLFLPPTTVPPECYRDLQAGLARILGSKLSSWQRNPALKLAARLAHACGSDWIPAGSSGSKFLALLVNLACVEVRLALEETGTEVKEDVVTACYALMELGIQECTRCEQSLLKEPQKVQLVSVMKEAIGAVIHYLLQVGSEKQKEPFVFASVRILGAWLAEETSSLRKEVCQLLPFLVRYAKTLYEEAEEANDLSQQVANLAISPTTPGPTWPGDALRLLLPGWCHLTVEDGPREILIKEGAPSLLCKYFLQQWELTSPGHDTSVLPDSVEIGLQTCCHIFLNLVVTAPGLIKRDACFTSLMNTLMTSLPALVQQQGRLLLAANVATLGLLMARLLSTSPALQGTPASRGFFAAAILFLSQSHVARATPGSDQAVLALSPEYEGIWADLQELWFLGMQAFTGCVPLLPWLAPAALRSRWPQELLQLLGSVSPNSVKPEMVAAYQGVLVELARANRLCREAMRLQAGEETASHYRMAALEQCLSEP [NCDN]	1.7	2.44	-0.084	0.191	49.8 °C	50.2 °C
MSCINLPTVLPGSPSKTRGQIQVILGPMFSGKSTELMRRVRRFQIAQYKCLVIKYAKDTRYSSSFCTHDRNTMEALPACLLRDVAQEALGVAVIGIDEGQFFPDIVEFCEAMANAGKTVIVAALDGTFQRKPFGAILNLVPLAESVVKLTAVCMECFREAAYTKRLGTEKEVEVIGGADKYHSVCRLCYFKKASGQPAGPDNKENCPVPGKPGEAVAARKLFAPQQILQCSPAN [TK1]	-4.01	-1.09	-0.138	0.28	56.1 °C	57.3 °C
MSDAAVDTSSEITTKDLKEKKEVVEEAENGRDAPANGNAENEENGEQEADNEVDEEEEEGGEEEEEEEEGDGEEEDGDEDEEAESATGKRAAEDDEDDDVDTKKQKTDEDD [PTMA]	-0.717	-1.69	-0.00535	-1.5	54.9 °C	55.1 °C
MSDDDSRASTSSSSSSSSNQQTEKETNTPKKKESKVSMSKNSKLLSTSAKRIQKELADITLDPPPNCSAGPKGDNIYEWRSTILGPPGSVYEGGVFFLDITFTPEYPFKPPKVTFRTRIYHCNINSQGVICLDILKDNWSPALTISKVLLSICSLLTDCNPADPLVGSIATQYMTNRAEHDRMARQWTKRYAT [UBE2E1]	1.73	3.2	-0.151	0.338	48.5 °C	49.5 °C
